{
  "source": "patent US6815189B1",
  "about": "“Gene from acremonium chrysogenum encoding a protein with cephalosporin C acetylhydrolase activity and methods of use of such gene” (Antibiotics, S.A.U., priority 1999, dated 2004)",
  "tested_on": "[H][C@]12SCC(COC(C)=O)=C(C(=O)O)N1C(=O)[C@H]2NC(=O)CCC[C@@H](N)C(=O)O",
  "assay": "Effect of substrate concentration on CPC-AH B activity (Lineweaver-Burk)",
  "type": "biochemical, Acremonium chrysogenum",
  "conditions": "other: CPC-AH B vs. CPC, 37.0 °C",
  "protocol": "To quantify the enzymatic degradation of the CPC, a reaction mixture was prepared, based on that described by Fujisawa et al. (1975, Agric. Biol. Chem. 39: 1303-1309) that contained, in a total volume of 100 μl: Tris-HCl, pH 8.0, 50 mM; CPC, 20 mM and culture supernatant 75 μl. The mixture was incubated for 60 minutes at 37° C. and the reaction was stopped by adding 100 μl of methanol. The proteins precipitated were removed by centrifugation for 5 minutes at 14 000 rev/min in an Eppendorff centrifuge. Production of DAC was analysed by injecting 100 μl of the reaction mixture in an HPLC Beckman System Gold equipped with a μBondapack C18 column. Elution was performed using a mixture of solvents A (10 mM sodium acetate—acetic acid, pH 4.5) and B (100% acetonitrile) using a linear gradient from 0 to 3% of solvent B between the 0 and 2 minutes and constant 3% from minute 2 to 15 at a flow of 1.3 ml/min. The cephalosporins are detected by their absorbance at 260 nm. In these conditions DAC is eluted with a retention time of 3.1 min whereas for CPC this occurs at 8.3 min. Both compounds were identified by co-elution with standard samples of CPC and DAC.\nWith fractions obtained from ion exchange separation, tests of CPC-AH activity were performed by HPLC, varying the concentration of CPC. […]",
  "data": [
    {"substance": "CPC-AH B (Hapsidospora chrysogenum ATCC 11550)", "values": [
      {"measurement": "Km", "result": 33.72, "unit": "mM"},
      {"measurement": "Vmax", "result": 91.95, "unit": "pKat/mg"}
    ]}
  ]
}
